Target: Rabbit skeletal muscle actin (filaments with free barbed ends) (rabbit) (UniProt P68135)

Sequence of C-terminal half of mouse CAP2, C-CAP2 (219–476)-6His (Q9CYT6 219-476): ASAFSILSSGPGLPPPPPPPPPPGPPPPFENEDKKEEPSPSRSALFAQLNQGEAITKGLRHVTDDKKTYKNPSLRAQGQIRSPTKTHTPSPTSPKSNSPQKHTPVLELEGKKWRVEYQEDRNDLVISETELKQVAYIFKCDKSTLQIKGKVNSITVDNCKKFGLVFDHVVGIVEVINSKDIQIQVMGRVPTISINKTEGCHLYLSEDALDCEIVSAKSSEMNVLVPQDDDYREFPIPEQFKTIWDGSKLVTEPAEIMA

barbed end depolymerization rate in mf-TIRF, no actin monomers, 1 μM C-CAP2 (2.5- to 3-fold faster than control) (subunits s^−1): 10.8
Substance: C-terminal half of mouse CAP2, C-CAP2 (219–476)-6His (from UniProt Q9CYT6 219-476) (domain or fragment)

— article PMC10692737
